Experimental findings from publication PMC6108849, “Heteromeric RNP Assembly at LINEs Controls Lineage-Specific RNA Processing” are described below.

The target in one series is rPTBP1;rMATR3 PRI-RRMs (human?;human?, UniProt P26599;P43243 1-557;341-592, |). The series can be described thus: UV crosslinking; PTBP1 crosslinking retained at excess rMATR3; heteromeric complex; 30 C 20 min, 10 fmol RNA, UV crosslink on ice (1920 mJ), RNase A1/T1 digestion, 15% denaturing PAGE; buffer, salt and pH not stated. The note with it: protein: recombinant;recombinant; (HisTrap purified); copies: 1;1; label: 32P-UTP.
Chain of rPTBP1;rMATR3 PRI-RRMs (P26599 whole entry, one chain of several): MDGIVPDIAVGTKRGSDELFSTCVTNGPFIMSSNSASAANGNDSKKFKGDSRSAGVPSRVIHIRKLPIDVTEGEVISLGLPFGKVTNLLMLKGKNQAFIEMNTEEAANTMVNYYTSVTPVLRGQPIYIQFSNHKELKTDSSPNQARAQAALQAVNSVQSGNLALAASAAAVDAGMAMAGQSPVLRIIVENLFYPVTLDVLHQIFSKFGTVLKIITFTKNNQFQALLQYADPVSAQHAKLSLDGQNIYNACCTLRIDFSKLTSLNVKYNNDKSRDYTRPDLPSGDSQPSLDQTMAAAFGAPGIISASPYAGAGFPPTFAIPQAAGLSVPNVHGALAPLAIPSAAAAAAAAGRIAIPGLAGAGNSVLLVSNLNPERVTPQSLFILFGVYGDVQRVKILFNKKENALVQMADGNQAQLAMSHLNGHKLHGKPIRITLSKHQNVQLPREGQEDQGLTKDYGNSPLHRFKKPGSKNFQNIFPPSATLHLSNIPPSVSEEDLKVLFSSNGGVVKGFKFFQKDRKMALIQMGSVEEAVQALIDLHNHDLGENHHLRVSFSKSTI

In a further series the target is T1, rMATR3 RRMs (UniProt P43243 362-592).
T1 sequence: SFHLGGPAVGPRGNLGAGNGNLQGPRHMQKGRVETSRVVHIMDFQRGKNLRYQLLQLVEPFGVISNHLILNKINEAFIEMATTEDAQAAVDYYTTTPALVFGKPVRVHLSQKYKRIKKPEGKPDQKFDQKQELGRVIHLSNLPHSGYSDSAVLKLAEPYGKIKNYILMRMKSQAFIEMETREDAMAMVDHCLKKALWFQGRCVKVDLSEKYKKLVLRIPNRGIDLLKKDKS
Briefly: UV crosslinking competition; competes with 0.5 uM rPTBP1 at equimolar concentration; 30 C 20 min, 10 fmol RNA, UV crosslink on ice (1920 mJ), RNase A1/T1 digestion, 15% denaturing PAGE; buffer, salt and pH not stated. The note with it: protein: recombinant; (HisTrap purified); label: 32P-UTP.

B1: ATCTT2 RNA probe (ssRNA)
RNA: GAAUACGAAUUCCAUAUAUGAUCGAUAAAUAUAUGGUACCUUGCUAUCUUACAUCUUUUUACGGAUCCCAUAUAUGAUCGAUAUAUAUAAGCU
As for B1, the binding result in the series with rPTBP1;rMATR3 PRI-RRMs and in the series with rMATR3 RRMs was “binds” throughout.
